In IntAct's records for PubMed 31515488:

B1: Zinc finger protein 581 (Homo sapiens), Q9P0T4 (parent)
chain: MLVLPSPCPQPLAFSSVETMEGPPRRTCRSPEPGPSSSIGSPQASSPPRPNHYLLIDTQGVPYTVLVDEESQREPGASGAPGQKKCYSCPVCSRVFEYMSYLQRHSITHSEVKPFECDICGKAFKRASHLARHHSIHLAGGGRPHGCPLCPRRFRDAGELAQHSRVHSGERPFQCPHCPRRFMEQNTLQKHTRWKHP
partner: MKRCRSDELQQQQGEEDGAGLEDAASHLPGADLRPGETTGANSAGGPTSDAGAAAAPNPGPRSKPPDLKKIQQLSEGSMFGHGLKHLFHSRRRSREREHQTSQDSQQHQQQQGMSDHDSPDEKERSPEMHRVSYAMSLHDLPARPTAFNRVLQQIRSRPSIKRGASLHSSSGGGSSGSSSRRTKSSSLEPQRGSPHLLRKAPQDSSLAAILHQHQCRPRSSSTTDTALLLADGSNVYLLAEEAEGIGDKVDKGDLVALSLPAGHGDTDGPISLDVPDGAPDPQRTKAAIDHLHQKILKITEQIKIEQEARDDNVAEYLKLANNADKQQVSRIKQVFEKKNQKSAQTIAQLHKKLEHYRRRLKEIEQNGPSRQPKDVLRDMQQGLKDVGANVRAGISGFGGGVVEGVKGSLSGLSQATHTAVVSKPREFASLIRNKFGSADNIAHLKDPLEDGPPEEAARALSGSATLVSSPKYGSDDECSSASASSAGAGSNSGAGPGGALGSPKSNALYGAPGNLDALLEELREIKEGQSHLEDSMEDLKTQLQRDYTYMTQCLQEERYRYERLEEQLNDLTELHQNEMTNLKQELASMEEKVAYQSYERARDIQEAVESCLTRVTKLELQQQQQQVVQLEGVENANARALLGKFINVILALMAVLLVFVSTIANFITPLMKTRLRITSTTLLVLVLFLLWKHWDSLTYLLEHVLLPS
B2: Copper homeostasis protein cutC homolog (Homo sapiens), Q9NTM9 (parent)
chain: MKRQGASSERKRARIPSGKAGAANGFLMEVCVDSVESAVNAERGGADRIELCSGLSEGGTTPSMGVLQVVKQSVQIPVFVMIRPRGGDFLYSDREIEVMKADIRLAKLYGADGLVFGALTEDGHIDKELCMSLMAICRPLPVTFHRAFDMVHDPMAALETLLTLGFERVLTSGCDSSALEGLPLIKRLIEQAKGRIVVMPGGGITDRNLQRILEGSGATEFHCSARSTRDSGMKFRNSSVAMGASLSCSEYSLKVTDVTKVRTLNAIAKNILV
partner: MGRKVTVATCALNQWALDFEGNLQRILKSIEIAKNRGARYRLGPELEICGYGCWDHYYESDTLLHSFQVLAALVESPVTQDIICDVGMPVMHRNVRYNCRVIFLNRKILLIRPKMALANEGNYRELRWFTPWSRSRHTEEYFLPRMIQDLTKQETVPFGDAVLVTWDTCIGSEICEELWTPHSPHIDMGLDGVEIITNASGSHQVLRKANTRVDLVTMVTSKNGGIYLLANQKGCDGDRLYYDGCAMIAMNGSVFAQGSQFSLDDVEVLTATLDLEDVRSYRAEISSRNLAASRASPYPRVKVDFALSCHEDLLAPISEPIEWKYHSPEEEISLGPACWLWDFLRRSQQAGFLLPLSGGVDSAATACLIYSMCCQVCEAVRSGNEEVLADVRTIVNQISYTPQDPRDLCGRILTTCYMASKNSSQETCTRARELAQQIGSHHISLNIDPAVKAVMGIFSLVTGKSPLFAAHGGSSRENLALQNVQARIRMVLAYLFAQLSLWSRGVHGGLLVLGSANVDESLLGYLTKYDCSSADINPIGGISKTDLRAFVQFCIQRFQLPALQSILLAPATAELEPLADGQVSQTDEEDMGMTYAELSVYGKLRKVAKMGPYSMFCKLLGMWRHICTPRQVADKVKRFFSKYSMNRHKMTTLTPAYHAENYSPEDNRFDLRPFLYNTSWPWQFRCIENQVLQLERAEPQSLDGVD
B3: Rab-like protein 2A (Homo sapiens), Q9UBK7 (parent)
chain: MAEDKTKPSELDQGKYDADDNVKIICLGDSAVGKSKLMERFLMDGFQPQQLSTYALTLYKHTATVDGKTILVDFWDTAGQERFQSMHASYYHKAHACIMVFDIQRKVTYRNLSTWYTELREFRPEIPCIVVANKIDDINVTQKSFNFAKKFSLPLYFVSAADGTNVVKLFNDAIRLAVSYKQNSQDFMDEIFQELENFSLEQEEEDVPDQEQSSSIETPSEEVASPHS
partner: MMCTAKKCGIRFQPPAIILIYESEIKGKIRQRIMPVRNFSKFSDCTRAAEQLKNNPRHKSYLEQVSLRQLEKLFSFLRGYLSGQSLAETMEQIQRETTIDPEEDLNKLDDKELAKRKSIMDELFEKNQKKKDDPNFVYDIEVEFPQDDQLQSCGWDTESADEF
B4: Filamin-binding LIM protein 1 (Homo sapiens), Q8WUP2 (parent)
chain: MASKPEKRVASSVFITLAPPRRDVAVAEEVRQAVCEARRGRPWEAPAPMKTPEAGLAGRPSPWTTPGRAAATVPAAPMQLFNGGCPPPPPVLDGEDVLPDLDLLPPPPPPPPVLLPSEEEAPAPMGASLIADLEQLHLSPPPPPPQAPAEGPSVQPGPLRPMEEELPPPPAEPVEKGASTDICAFCHKTVSPRELAVEAMKRQYHAQCFTCRTCRRQLAGQSFYQKDGRPLCEPCYQDTLERCGKCGEVVRDHIIRALGQAFHPSCFTCVTCARCIGDESFALGSQNEVYCLDDFYRKFAPVCSICENPIIPRDGKDAFKIECMGRNFHENCYRCEDCRILLSVEPTDQGCYPLNNHLFCKPCHVKRSAAGCC
partner: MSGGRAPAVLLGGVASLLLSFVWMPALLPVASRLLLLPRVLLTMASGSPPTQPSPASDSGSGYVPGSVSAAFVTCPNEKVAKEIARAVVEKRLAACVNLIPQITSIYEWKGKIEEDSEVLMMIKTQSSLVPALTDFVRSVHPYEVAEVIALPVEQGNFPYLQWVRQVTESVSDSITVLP
B5: Leucine rich adaptor protein 1 (Homo sapiens), Q96LR2 (parent)
chain: MEGTVESQTPDLRDVEGKVGRKTPEGLLRGLRGECELGTSGALLLPGASSTGHDLGDKIMALKMELAYLRAIDVKILQQLVTLNEGIEAVRWLLEERGTLTSHCSSLTSSQYSLTGGSPGRSRRGSWDSLPDTSTTDRLDSVSIGSFLDTVAPSELDEQGPPGAPRSEMDWAKVIAGGERARTEVDVAATRLGSLRAVWKPPGERLQGGPPESPEDESAKLGFEAHWFWEQCQDDVTFL
B6: ATP synthase mitochondrial F1 complex assembly factor 2 (Homo sapiens), Q8N5M1 (parent)
chain: MWRSCLRLRDGGRRLLNRPAGGPSASMSPGPTIPSPARAYAPPTERKRFYQNVSITQGEGGFEINLDHRKLKTPQAKLFTVPSEALAIAVATEWDSQQDTIKYYTMHLTTLCNTSLDNPTQRNKDQLIRAAVKFLDTDTICYRVEEPETLVELQRNEWDPIIEWAEKRYGVEISSSTSIMGPSIPAKTREVLVSHLASYNTWALQGIEFVAAQLKSMVLTLGLIDLRLTVEQAVLLSRLEEEYQIQKWGNIEWAHDYELQELRARTAAGTLFIHLCSESTTVKHKLLKE
B7: Notch homolog 2 N-terminal-like protein A (Homo sapiens), Q7Z3S9 (parent)
chain: MCVTYHNGTGYCKCPEGFLGEYCQHRDPCEKNRCQNGGTCVAQAMLGKATCRCASGFTGEDCQYSTSHPCFVSRPCLNGGTCHMLSRDTYECTCQVGFTGKECQWTDACLSHPCANGSTCTTVANQFSCKCLTGFTGQKCETDVNECDIPGHCQHGGTCLNLPGSYQCQCLQGFTGQYCDSLYVPCAPSPCVNGGTCRQTGDFTFECNCLPETVRRGTELWERDREVWNGKEHDEN
partner: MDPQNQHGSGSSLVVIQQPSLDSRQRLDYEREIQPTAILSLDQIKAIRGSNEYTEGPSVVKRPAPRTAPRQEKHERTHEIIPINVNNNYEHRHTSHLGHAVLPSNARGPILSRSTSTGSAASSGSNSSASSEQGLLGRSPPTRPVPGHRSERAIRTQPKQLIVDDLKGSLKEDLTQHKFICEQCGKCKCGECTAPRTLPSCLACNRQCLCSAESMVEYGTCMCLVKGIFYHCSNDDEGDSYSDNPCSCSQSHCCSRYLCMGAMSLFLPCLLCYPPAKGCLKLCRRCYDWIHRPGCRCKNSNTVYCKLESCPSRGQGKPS

Variants of: B1
Details: with tmcc2_human TMCC2, O75069

| Variant | effect of a mutation on the interaction |
| --- | --- |
| R143W | with no effect |

Variants of: B2
Details: with nade_human NADSYN1, Q6IA69

| Variant | effect of a mutation on the interaction |
| --- | --- |
| P77L | disrupting interaction strength |

Variants of: B3
Details: with cep19_human CEP19, Q96LK0

| Variant | effect of a mutation on the interaction |
| --- | --- |
| L119F | with no effect |
| T53M | with no effect |
| R82Q | with no effect |
| A94T | with no effect |

Variants of: B4
Details: with cuta_human CUTA

| Variant | effect of a mutation on the interaction |
| --- | --- |
| Y204C | disrupting interaction strength |

Variants of: B5
Details: with tpm3_human TPM3, P06753
Sequence of tpm3_human TPM3, P06753 (P06753 whole entry): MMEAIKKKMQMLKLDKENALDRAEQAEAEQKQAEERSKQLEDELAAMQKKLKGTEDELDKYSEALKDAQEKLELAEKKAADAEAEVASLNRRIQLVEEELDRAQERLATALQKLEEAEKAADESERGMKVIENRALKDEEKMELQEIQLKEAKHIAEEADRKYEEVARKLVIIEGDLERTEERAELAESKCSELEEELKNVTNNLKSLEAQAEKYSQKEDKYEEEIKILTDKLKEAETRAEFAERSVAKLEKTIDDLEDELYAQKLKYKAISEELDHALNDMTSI

| Variant | effect of a mutation on the interaction |
| --- | --- |
| M60L | with no effect |
| Q207R | with no effect |

Variants of: B6
Details: with tri23_human TRIM23, P36406
Sequence of tri23_human TRIM23, P36406 (P36406 whole entry): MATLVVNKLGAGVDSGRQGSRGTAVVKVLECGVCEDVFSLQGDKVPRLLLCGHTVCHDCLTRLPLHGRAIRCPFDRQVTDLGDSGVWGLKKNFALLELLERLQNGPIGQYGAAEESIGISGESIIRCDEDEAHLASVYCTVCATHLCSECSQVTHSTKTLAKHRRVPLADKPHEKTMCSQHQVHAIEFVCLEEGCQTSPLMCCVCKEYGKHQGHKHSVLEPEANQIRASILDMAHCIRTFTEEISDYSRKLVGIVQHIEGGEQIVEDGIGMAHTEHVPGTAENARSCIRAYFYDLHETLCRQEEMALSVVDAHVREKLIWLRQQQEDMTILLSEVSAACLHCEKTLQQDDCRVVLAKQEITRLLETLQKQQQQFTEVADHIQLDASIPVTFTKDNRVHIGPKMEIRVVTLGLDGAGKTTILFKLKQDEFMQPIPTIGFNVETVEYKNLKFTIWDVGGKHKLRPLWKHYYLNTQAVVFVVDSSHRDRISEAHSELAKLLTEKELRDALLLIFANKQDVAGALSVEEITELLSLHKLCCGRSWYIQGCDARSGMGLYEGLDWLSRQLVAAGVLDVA

| Variant | effect of a mutation on the interaction |
| --- | --- |
| E241G | with no effect |

Variants of: B6
Details: with ews_human EWSR1, Q01844
Sequence of ews_human EWSR1, Q01844 (Q01844 whole entry): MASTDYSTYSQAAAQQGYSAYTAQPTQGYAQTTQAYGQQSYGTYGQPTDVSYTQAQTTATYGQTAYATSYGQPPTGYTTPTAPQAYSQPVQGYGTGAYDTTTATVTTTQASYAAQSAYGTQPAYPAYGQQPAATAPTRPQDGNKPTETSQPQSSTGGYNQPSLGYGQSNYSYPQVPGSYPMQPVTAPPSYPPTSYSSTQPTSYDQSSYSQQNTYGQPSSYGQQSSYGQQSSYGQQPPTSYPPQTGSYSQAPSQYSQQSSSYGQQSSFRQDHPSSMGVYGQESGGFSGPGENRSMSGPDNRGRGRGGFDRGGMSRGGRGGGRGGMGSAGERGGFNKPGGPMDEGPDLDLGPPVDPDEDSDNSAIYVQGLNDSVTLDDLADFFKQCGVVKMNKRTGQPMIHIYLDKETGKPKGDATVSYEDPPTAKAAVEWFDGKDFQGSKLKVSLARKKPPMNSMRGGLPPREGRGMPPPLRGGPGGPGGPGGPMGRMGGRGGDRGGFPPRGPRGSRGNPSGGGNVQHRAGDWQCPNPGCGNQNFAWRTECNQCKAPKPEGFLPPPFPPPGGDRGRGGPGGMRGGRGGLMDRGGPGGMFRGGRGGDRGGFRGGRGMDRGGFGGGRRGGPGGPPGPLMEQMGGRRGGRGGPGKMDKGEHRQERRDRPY

| Variant | effect of a mutation on the interaction |
| --- | --- |
| E241G | with no effect |

Variants of: B7
Details: with spy1_human SPRY1, O43609

| Variant | effect of a mutation on the interaction |
| --- | --- |
| R74Q | with no effect |
